Here are results for 99 substances from the supplement of paper PMC12042874.

± gives the uncertainty stated by the source.

The nature of the series: amyloid nucleation score (Sup35N fusion, yeast selection) (log enrichment); library NNK3; higher = more nucleation; inactive = no reads after selection. In short, it runs like this: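 Peptides of 20 random codons fused to Sup35N were expressed in psi-negative yeast, induced 24 hours with 100 μM copper sulfate, then grown 7 days at 30°C on medium lacking adenine and uracil. Input and output plasmid inserts were Illumina-sequenced. Nucleation score is the DiMSum log enrichment of output over input reads, centred on the mode score of non-aggregating sequences, excluding sequences with under 100 input reads. Random libraries had three technical output replicates.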
As for KPQVPSN, the amyloid nucleation score result is “inactive”. The entry for KQKWIPYSLCFFTPVR is “inactive”. The figure for KQLLGGPTVSFNVVYSVALK is 1.98 ± 0.088; for KRANSE it is 1.11 ± 0.1; for KRCIYKSNGI it is “inactive”.

As to KRFTLFSMIYGRV, the amyloid nucleation score result was “inactive”. With KRGNQGGAMEDFLCNADIRV the entry was “inactive”; with KRLAKWGTMYLV, “inactive”; with KRLSCNFRSRSKSSGWPTLV, “inactive”. With KRYSIMFSKASQ the figure was 0.986 ± 0.15; with KRYYYCHGSSL, “inactive”. The entry for KSFELYSKNVMYDSVLGVCL is “inactive”; for KSFQGSITILVFSWLINNPR it is “inactive”; for KSFSR it is “inactive”. For KSKNPIIVFTYRM, the amyloid nucleation score worked out at 1.2 ± 0.14. The figure for KSNFGLVSSPMVFSYCSYTN is 0.364 ± 0.35; for KSTTACASRTYMCMHTGRNC it is “inactive”; for KSVQKMAWTVRCELYLHTG it is “inactive”. The entry for KSYLFWSLI is “inactive”; for KTKQIYDGPLGHSYADKCNV it is “inactive”; for KTLWHEVRGDDSNVSSCWFS it is “inactive”. The entry for KTQDKITGFLTVLWLRKLVP is “inactive”; for KTSINGKADFG it is “inactive”; for KVCNSF it is “inactive”. Consider KVCSVVLLGLFSYMYRGYVM, for which the amyloid nucleation score entry was “inactive”. As to KVGFHHDTVLAGSNQRVLFF, the amyloid nucleation score was -0.354 ± 0.88. Turning to KVGIF, the amyloid nucleation score result was “inactive”. With KVKRFY the figure was 1.17 ± 0.19.

For the substance KVLSYRETVPRLICLIHSRP, the amyloid nucleation score entry was “inactive”. For KVNAFTCTKSFGLCVSESFT, the amyloid nucleation score result is “inactive”. With KVSYSQTPISGRTDTPVPDR the figure was 0.294 ± 0.2; with KWLYTDYRVISSHILKHLSA, “inactive”. Turning to KWVFYYDRRVDSLLARMFLC, the amyloid nucleation score entry is “inactive”. With KWYRWCMYADDIESHLFGAL the entry was “inactive”. With KYCGLSRPIAFSPVVKKHLM the entry was “inactive”; with KYCGVTNLA, “inactive”; with KYFTLDMNRKSISYL, “inactive”. With KYIQIDKVFH the entry was “inactive”. As for KYRVGMSSWFNLAHYGNLCG, the amyloid nucleation score came out at 0.228 ± 0.25. With KYYWFMF the figure was 1.78 ± 0.096. The entry for LAAIDERPS is “inactive”; for LAAQIMNSLCRLELSQALSR it is “inactive”; for LACLILS it is “inactive”. The entry for LACRFILNAEVEICLAWKLG is “inactive”. Take LADLNTTNIVIGQCCFFYRL: the amyloid nucleation score was found to be 2.55 ± 0.076. In turn, LAFYNQHWNFSMRSGMQGFK showed an amyloid nucleation score of 1.05 ± 0.23. Regarding LAGRHVVMWLQLMAHDIENM, the amyloid nucleation score entry was “inactive”. The entry for LAMSYYLYPGSCDLKRS is “inactive”; for LAPGRLCLMGIKRTTSWWSS it is “inactive”; for LAPHLSTIMCIEHNS it is “inactive”. With LARRNTLVEGHDD the entry was “inactive”; with LARWNVIWFFNGNCIFEESV, 1.31 ± 0.074; with LASNFVGASIPPRRACGCRA, “inactive”. On to LATHSICVKGNSRVSELISA, for which the amyloid nucleation score entry is “inactive”. For the substance LAVVNYQSFTNVEWVGNRIK, the amyloid nucleation score entry is “inactive”. With LAWCVLSKPRDRYSGVTSTL the entry was “inactive”. With LCGLSDSYCRA the entry was “inactive”; with LCHVVSDMVLSIQHYHACLS, “inactive”; with LCHYYLRSKLMAFDMLAFPS, “inactive”.

In the case of LCNWRAVDCDD, the amyloid nucleation score is -0.151 ± 0.59. With LCPHPPFLCLVQQRFTTGSG the figure was -0.123 ± 0.33.

LCRGYDRLKRPHSVVSGSIC: the amyloid nucleation score result was “inactive”.

On to LCRNWVR, for which the amyloid nucleation score result is “inactive”. With LCSFPKH the entry was “inactive”; with LCSSLIM, “inactive”. With LCSVVTSRAMSGSF the entry was “inactive”.

As to LCTESFIISR, the amyloid nucleation score result was “inactive”. On to LCVSCIDSFLGEMVFGLEVI, for which the amyloid nucleation score entry was “inactive”.

LDARN had an amyloid nucleation score of -0.213 ± 1.5.

In the case of LDCLLFKKCFVVRGLNDYSE, the amyloid nucleation score result was “inactive”. For LDFCFLGHRWRSFSGSYRKS, the amyloid nucleation score entry was “inactive”. The entry for LDFWRESVGAKE is “inactive”; for LDFYRTFNDSIFKMGPLCLS it is “inactive”; for LDIFKISDTWMFDGQLTHLL it is “inactive”.

LDRSVIIVSLILS: the amyloid nucleation score is 1.87 ± 0.072.

For the substance LDVPWRTFLNGFHSFLT, the amyloid nucleation score result is “inactive”.

Take LDVQATIAFCVVVYASLYKR: the amyloid nucleation score entry was “inactive”.

With LDVVRRMLKTH, the amyloid nucleation score entry was “inactive”.

Consider LDVYTVTGRDW, for which the amyloid nucleation score entry is “inactive”.

Take LDYAFCILNNNCREC: the amyloid nucleation score amounted to 3.05 ± 0.057. With LEHCLCGLKYPDE the entry was “inactive”; with LEMTSCTNLLHKRELVSWHR, “inactive”; with LEPDNYTLGGTKSTTTFAHR, “inactive”. With LERYRFKRNMSVIELHNKVM the entry was “inactive”; with LESINTLLNYVYYFNLVN, “inactive”. In the case of LEVHIFKDPEY, the amyloid nucleation score result was “inactive”. With LEWRMNVLMLFRNVMVHIAS the entry was “inactive”; with LEYAYSELNSSVSTLSSFE, “inactive”; with LEYVCMRH, “inactive”. With LFADWQG, the amyloid nucleation score result is “inactive”. The entry for LFCFSVN is “inactive”; for LFDLWNRVF it is “inactive”; for LFGEGKFKYWMSVKKFGSGI it is “inactive”.

Take LFHDLGFAD: the amyloid nucleation score result was “inactive”. The entry for LFHSYLIHRLFPSNHSNFRM is “inactive”; for LFIECIRSGDDGCILWETWH it is “inactive”. With LFKDSIVLIGILYCMFNLHD the entry was “inactive”. With LFKKVDTWSYLHGDTMLRGI the entry was “inactive”. In the case of LFKLSMQLCNT, the amyloid nucleation score was 1.71 ± 0.076.
